Experimental data taken from patent publication CN116813768A.

Target: 大熊猫TSHβ特异序列(TSHβ-1), synthetic peptide (大熊猫 (giant panda))
Assay: indirect ELISA, TSHβ-1 peptide coated at 2 μg/mL, serial dilutions of purified antibody, OD450

效价 (ELISA titer) (fold dilution): > 1e+06
B1: 大熊猫TSHβ单克隆抗体 (secreted by hybridoma cell line TSHB-A, CCTCC NO: C202282) (antibody, V domains shown)
VH: EVKLVESGGGLVKPGGSLKLSCAASGFIFRRYAMSWVRQTPEKRLEWVAAISSGGNIYYLDNVKGRFTISRDDARNILYLQMSSLRSEDTAMYYCARDDYDEDWYFDVWGAGTTVTVSS
VL: DVLMTQIPLSLPVSLGDQASISCRSSQSIVHSNGNTYLEWYLQKPGQSPNLLIYKVSNRFSGVPDRFSGSGSGTDFTLKISRVEAEDLGVYYCFQGSHLPPTFGGGTKLEIK
